This is an account of results in IntAct's records for PubMed 21946559.

The labels stand for the following.
B1: Netrin-G2 (Homo sapiens), Q96CW9 (parent)
chain: MLHLLALFLHCLPLASGDYDICKSWVTTDEGPTWEFYACQPKVMRLKDYVKVKVEPSGITCGDPPERFCSHENPYLCSNECDASNPDLAHPPRLMFDKEEEGLATYWQSITWSRYPSPLEANITLSWNKTVELTDDVVMTFEYGRPTVMVLEKSLDNGRTWQPYQFYAEDCMEAFGMSARRARDMSSSSAHRVLCTEEYSRWAGSKKEKHVRFEVRDRFAIFAGPDLRNMDNLYTRLESAKGLKEFFTLTDLRMRLLRPALGGTYVQRENLYKYFYAISNIEVIGRCKCNLHANLCSMREGSLQCECEHNTTGPDCGKCKKNFRTRSWRAGSYLPLPHGSPNACATAGSFGNCECYGHSNRCSYIDFLNVVTCVSCKHNTRGQHCQHCRLGYYRNGSAELDDENVCIECNCNQIGSVHDRCNETGFCECREGAAGPKCDDCLPTHYWRQGCYPNVCDDDQLLCQNGGTCLQNQRCACPRGYTGVRCEQPRCDPADDDGGLDCDRAPGAAPRPATLLGCLLLLGLAARLGR
partner: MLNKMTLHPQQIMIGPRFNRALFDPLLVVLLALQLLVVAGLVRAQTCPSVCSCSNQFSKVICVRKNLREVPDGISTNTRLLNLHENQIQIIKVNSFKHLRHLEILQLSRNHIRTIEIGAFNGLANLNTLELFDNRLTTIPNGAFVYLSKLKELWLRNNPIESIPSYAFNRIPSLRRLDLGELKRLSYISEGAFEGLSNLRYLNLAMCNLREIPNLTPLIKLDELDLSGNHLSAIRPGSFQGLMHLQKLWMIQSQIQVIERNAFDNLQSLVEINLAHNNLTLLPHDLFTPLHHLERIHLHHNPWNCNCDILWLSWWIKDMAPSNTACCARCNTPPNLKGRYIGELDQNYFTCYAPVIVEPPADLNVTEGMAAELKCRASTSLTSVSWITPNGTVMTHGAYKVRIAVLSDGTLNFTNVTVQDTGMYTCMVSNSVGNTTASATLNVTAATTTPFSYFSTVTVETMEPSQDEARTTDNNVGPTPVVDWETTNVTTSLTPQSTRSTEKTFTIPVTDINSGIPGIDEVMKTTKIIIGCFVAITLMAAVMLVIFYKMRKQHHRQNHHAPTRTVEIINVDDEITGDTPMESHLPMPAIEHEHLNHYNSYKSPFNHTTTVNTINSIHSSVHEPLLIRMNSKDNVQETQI
B2: Leucine-rich repeat-containing protein 4 (Homo sapiens), Q9HBW1 (parent)
chain: MKLLWQVTVHHHTWNAILLPFVYLTAQVWILCAAIAAAASAGPQNCPSVCSCSNQFSKVVCTRRGLSEVPQGIPSNTRYLNLMENNIQMIQADTFRHLHHLEVLQLGRNSIRQIEVGAFNGLASLNTLELFDNWLTVIPSGAFEYLSKLRELWLRNNPIESIPSYAFNRVPSLMRLDLGELKKLEYISEGAFEGLFNLKYLNLGMCNIKDMPNLTPLVGLEELEMSGNHFPEIRPGSFHGLSSLKKLWVMNSQVSLIERNAFDGLASLVELNLAHNNLSSLPHDLFTPLRYLVELHLHHNPWNCDCDILWLAWWLREYIPTNSTCCGRCHAPMHMRGRYLVEVDQASFQCSAPFIMDAPRDLNISEGRMAELKCRTPPMSSVKWLLPNGTVLSHASRHPRISVLNDGTLNFSHVLLSDTGVYTCMVTNVAGNSNASAYLNVSTAELNTSNYSFFTTVTVETTEISPEDTTRKYKPVPTTSTGYQPAYTTSTTVLIQTTRVPKQVAVPATDTTDKMQTSLDEVMKTTKIIIGCFVAVTLLAAAMLIVFYKLRKRHQQRSTVTAARTVEIIQVDEDIPAATSAAATAAPSGVSGEGAVVLPTIHDHINYNTYKPAHGAHWTENSLGNSLHPTVTTISEPYIIQTHTKDKVQETQI
partner: B1 chain
B3: Netrin-G1 (Homo sapiens), Q9Y2I2 (parent)
chain: MYLSRFLSIHALWVTVSSVMQPYPLVWGHYDLCKTQIYTEEGKVWDYMACQPESTDMTKYLKVKLDPPDITCGDPPETFCAMGNPYMCNNECDASTPELAHPPELMFDFEGRHPSTFWQSATWKEYPKPLQVNITLSWSKTIELTDNIVITFESGRPDQMILEKSLDYGRTWQPYQYYATDCLDAFHMDPKSVKDLSQHTVLEIICTEEYSTGYTTNSKIIHFEIKDRFAFFAGPRLRNMASLYGQLDTTKKLRDFFTVTDLRIRLLRPAVGEIFVDELHLARYFYAISDIKVRGRCKCNLHATVCVYDNSKLTCECEHNTTGPDCGKCKKNYQGRPWSPGSYLPIPKGTANTCIPSISSIGNCECFGHSNRCSYIDLLNTVICVSCKHNTRGQHCELCRLGYFRNASAQLDDENVCIECYCNPLGSIHDRCNGSGFCECKTGTTGPKCDECLPGNSWHYGCQPNVCDNELLHCQNGGTCHNNVRCLCPAAYTGILCEKLRCEEAGSCGSDSGQGAPPHGSPALLLLTTLLGTASPLVF
partner: B2 chain
B4: Netrin-G2 (Homo sapiens), Q96CW9 (parent)
chain: B1 chain
partner: B2 chain
B5: Leucine-rich repeat-containing protein 4C (Homo sapiens), Q9HCJ2 (parent)
chain: B1 partner
partner: B1 chain
B6: Leucine-rich repeat-containing protein 4C (Homo sapiens), Q9HCJ2 (parent)
chain: B1 partner
partner: B3 chain
B7: Leucine-rich repeat-containing protein 4 (Homo sapiens), Q9HBW1 (parent)
chain: B2 chain
partner: B3 chain
B8: Netrin-G1 (Homo sapiens), Q9Y2I2 (parent)
chain: B3 chain
partner: B1 partner

The first assay covers variants of B1. The conditions noted are these: with lrc4c_human LRRC4C, Q9HCJ2.
As to P74A, the “effect of a mutation on the interaction” value was “disrupting interaction”.

As for Y75T, the “effect of a mutation on the interaction” value is “disrupting interaction”.

Variants of B2 are the subject of another assay. The settings on record: with ntng2_human NTNG2, Q96CW9.
In the case of G204T, the “effect of a mutation on the interaction” value is on record as “disrupting interaction”.

The variants in the next assay derive from B3. The settings on record: with lrrc4_human LRRC4, Q9HBW1.
With Y86T, the “effect of a mutation on the interaction” value is on record as “disrupting interaction”.

Consider P85A, for which the “effect of a mutation on the interaction” value is given as “disrupting interaction”.

The variants in another assay derive from B4. The conditions noted are these: with lrrc4_human LRRC4, Q9HBW1.
In the case of Y75T, the “effect of a mutation on the interaction” value is “disrupting interaction”.

For the variant P74A, the “effect of a mutation on the interaction” value is recorded as “disrupting interaction”.

Variants of B5 are the subject of another assay. The settings on record: with ntng2_human NTNG2, Q96CW9.
Take A205T: the “effect of a mutation on the interaction” value was “disrupting interaction”.

Another assay covers variants of B6. The settings on record: with ntng1_human NTNG1, Q9Y2I2.
For A205T, the “effect of a mutation on the interaction” value is “disrupting interaction”.

The variants in another assay derive from B7. The settings on record: with ntng1_human NTNG1, Q9Y2I2.
Take G204T: the “effect of a mutation on the interaction” value is reported as “disrupting interaction”.

A further assay covers variants of B8. The settings on record: with lrc4c_human LRRC4C, Q9HCJ2.
For P85A, the “effect of a mutation on the interaction” value was “disrupting interaction”.

Consider Y86T, for which the “effect of a mutation on the interaction” value is “disrupting interaction”.
